Results from the DeepSol protein solubility set.

Assay: soluble on expression in E. coli; label from the status in PepcDB or PDB records

Sequence | soluble on expression in E. coli
PHFIVECSDNIREEADLPGLFAKVNPTLAATGIFPLAGIRSRVHWVDTWQMADGQHDYAFVHMTLKIGAGRSLESRQQAGEMLFELIKTHFAALMESRLLALSFEIEELHPTLNFKQNNVHALFK | soluble
MSRGPSSAVLPSALGSRKLGPRSLSCLSDLDGGVALEPRACRPPGSPGRAPPPTPAPSGCDPRLRPIILRRARSLPSSPERRQKAAGAPGAACRPGCSQKLRVRFADALGLELAQVKVFNAGDDPSVPLHVLSRLAINSDLCCSSQDLEFTLHCLVPDFPPPVEAADFGERLQRQLVCLERVTCSDLGISGTVRVCNVAFEKQVAVRYTFSGWRSTHEAVARWRGPAGPEGTEDVFTFGFPVPPFLLELGSRVHFAVRYQVAGAEYWDNNDHRDYSITCRNHALHMPRGECEESWIHFI | soluble
MSLTADPPACTVPAAGGSSTHKLVNGGADKLIFKIKSSNNNEYRIVPVFGFVDPSGSKDVVITRTAGAPKEDKLVVHFAPAPADATDAQAAFAAVTPAGTVTIPMSATA | not soluble
MTEQKNKTSLIEFPCTFPLKVMGAVHPEFEQAVLDTVRLHAPDTQAHHITTRPSSKGNYTGATVQVKVENQEQLDNIYRALTSHELVKVVL | not soluble
MAHHHHHHMPSGDAMIPRVCRTFSDAFASDEATAKEQGKKYWISRVLGSGATGTVLCAKRRSDGQSFAVKVVEMEGMSEADKNRAQAEVQCLLNCDFFSILKCHEDFAKKDPADEENVLMVALVLDYANAGDLRQEIKNRAKAARAFREHEAGLLFIQVLLAIHHVHSRHMIHRDIKTANILLCSNGLVKLGDFGFSKMYSATVSGDVGKTFCGTPYYVAPEIWRRKPYSKKADIFSLGVLLYELLTLKRPFDGENMQEVMQKALAGRYDPLPPTISPEMTEVVTSLLCGDPHARPSSSKLLNMPICKLFVSGLLEIVQTQPSFAGPLRDTISTHIQSVKQSLKEERRVTVRQMEESQSAAAASTTILEGATPMGSVGDLTLYEGIVKKQSGDLAWKRRYLCIRGALEEGERLDVGRMPKFKSLDLVLAVSKETMRQQCITTPFSELEDVFPVASKYTGSNAQHVFAVAFKTGRRLLFQARGDPERDAWMQKIQQTLGIDEAD | soluble
MAHHHHHHMNAMYSADQIHVPPELGTIMKQYTKAVMRDKPTDLYKYSANFFAILSGYAAPFDSEGQLMENGVQEASSRSTVPISFGSEKEENAGSQDPTDILLRRYDRTGTGYMDPAELPQLLAELRMNLSLDEKDVVSAEDILAALPSACDQIDLLELRNLLLESMGD | soluble
MIINIRKFREHDLKRVMEIEKESFDKNYPEFLMMHIYTSFPDGFLVAETEDGKIVGYIIALMEWGNGHVVSIAVDSAYQNYGIGNALLSATENFLFNECHAKHCVLEVRFDNKKAREFYYKRNYVDRKVLYNYYDDGADAILMIKRRFDLSGNYPIFVNMW | not soluble
MPEILKIKPTRMELLKLKRRVKLAERGHKLLKEKQDALIMEFFTIYDEALSLRRELIRKMEEAFNSLRRAQVDVGALRLKEIAIGVKPNKEIEIKTRNIMGVRVPLIEVPELKRKASERGYAFVSTTSTVDMAAEKFEEVLELAIRLAEVEESLKRLGKEIEKTKRRVNALEYIIIPRMENTIKFIEQHLDEMERENFFRLKRVKAILEARQSMLEHHHHHH | soluble
GSLKCILLNQAEELPIEFLPKDGVYGKGKLFDSRNMEIENFTESDILQDARRAAEAHRRARYRVQSIVRPGITLLEIVRSIEDSTRTLLKGERNNGIGFPAGMSMNSCAAHYTVNPGEQDIVLKEDDVLKIDFGTHSDGRIMDSAFTVAFKENLEPLLVAAREGTETGIKSLGVDVRVCDIGRDINEVISSYEVEIGGRMWPIRPISDLHGHSISQFRIHGGISIPAVNNRDTTRIKGDSFYAVETFATTGKGSIDDRPPCSHFVLNTYKSRKLFNKDLIKVYEFVKDSLGTLPFSPRHLDYYGLVKGGSLKSVNLLTMMGLLTPYPPLNDIDGCKVAQFEHTVYLSEHGKEVLTRGDDY | soluble
MKTINVFHYDAFTNKPNMGNPAGIVLDADGLTEEEMQRIAEKVGFNETSFVLSSEVADIRMRYFTPGYEMDLCGHGTVGTIYALRERGLLEEKASLTIETKAGILPIQIGVNENGETFIKMRQTAPQFKDFAGSKEELAHSIGLEVNDLDVSLPIVYGSTGNWTVIVPVKNLDVCERMKPNNEVFPSVLKEIPNASIHPICLETYDEKVHMHGRHFSSAYAGTIEDPVTGTASGVMGAYYATYVEKDFDHEMELIVEQGQEIHKDGRVTVYVTKDVESEKLQIDIAGTAVYVKEFEVLI | soluble
ASSGIVKMVSPTSKIEPCIVSVTYGSMTLNGLWLDDKVYCPRHVICSSSNMNEPDYSALLCRVTLGDFTIMSGRMSLTVVSYQMQGCQLVLTVSLQNPYTPKYTFGNVKPGETFTVLAAYNGRPQGAFHVTMRSSYTIKGSFLCGSCGSVGYVLTGDSVKFVYMHQLELSTGCHTGTDFTGNFYGPYRDAQVVQLPVKDYVQTVNVIAWLYAAILNNCAWFVQNDVCSTEDFNVWAMANGFSQVKADLVLDALASMTGVSIETLLAAIKRLYMGFQGRQILGSCTFEDELAPSDVYQQLAGV | soluble
MGSDKIHHHHHHMKMTDPLYGTFEIEPVLAELIQSPLVSRLAHVHQGGSSYLVNPLWDLSRLDHSIGVMLFIRKFGGSLEEQIAGLLHDVSHTAFSHVVDYALDFEEEDYHEQIFEDFVKTSTIPAILEKYGYSFEGIFDDISKWKILEQEAPELCADRIDYTLQDLYRHRKISLAEVEEFLQALVMVDGRLYLANIALAEWFVAQYYSEVIDYFYDPLNVYSYEILAEAMRIAFQQETITTADLRLTDTELLAKLNANSDAREKIQLLASAHLEENEADFTYHHKKKMRLINPSILVDGRLIPADELSEKVRKMNDWASERSKHGIYIKATKKSKQ | not soluble
MIQVLGTSSGSGKTTIAMALSRIFFRSGYRVAPFKAVNMSLNSVIVEGEYEIARAQWLQAKAANTEPTRFMNPILLKPEGMGASQVIMLGKSLGKKTIPEYYEFIMNDGKRVIREAIDRISDDYDLIIAEGAGSPAEINLLDRDMANIYVSSIYNTPAILVGDIDRGGVFASIYGTLSLMPRPDLVRWIMINKMRGDASLLEPGLKKLENLTGKRVIGVVPYSENRLPGEDSFDYDHPRARGSKITIVRYPFMENYSDLDPLVYTSTGYNYVTAENASDLSDADLIVLPGSKNVFADLEYMRKNGIDKIIIENAGRAKILGICGGYQMLGQRITMGEISADGLGLLRAKTNYERTKTTRSVRYRVDNTLMSGTWEEGYEIHYGAVISLGGERMNETDKGPEGNVDANRLVFGTNIHGILANRSVFRFMTGRDIGEPEEYLRSEIDRFADVVKSSIDVADLIEYASSRE | not soluble
MANHVSLILPPLSLYIHIPWCVQKCPYCDFNSHTQKGTIPEAEYIQHLLADLSQDLVTYKTAIANRKIHSIFIGGGTPSLFSAEAIAYLLAEIKQRIAFAPKIEITLEANPGTAEAERFICYTEAGINRISMGIQSFEEEKLRKLGRIHDAHEAKQAVYFAKNALISPSRTVGLHSFNLDLMHGLPNQTLEQALADLNTAISLNPPHFSWYQLTIEPNTMFYYRQPTLPDDDELWAIFEQGHQLLTMAGYQQYETSAYAKQGFQCQHNLNYWRFGDYLAIGCGAHGKISYPSGEIYRFSKTKHPKGYMRGDYRDSQQSIQLDDRPFEFFMNRFRLLEPTPKQEFECYTGLDCERVRPTIDWALNKHYISETSTTWQVTQKGKLFLNELLAGFLTLEHHHHHH | not soluble
MGSDKIHHHHHHMTFLRALLGATGQTLRAALAGLTVKPHSGHPVFPVTWVTPHIAAGPAPVSAAHLEALREQGIVAILNVCEELCTLADTEEAAGFEVRFLPIEDEGAPEPDALEEVLDWLDESVWRGRKVYVHCRWGVGRTGTVLHAYLLRRGLSPRRAEHFLSRLRSRPTSYTQWRSLRRFARRNPALTVREAAVEPGVADAMTPVLRDLARLVQEVERHVEAATPGISPEAFADAPRCGRDHVRCCATPPTLTLAEAAALTAAMDALLSSTQRDELRQKTSRGSGVPCPLLHDQRCLLYEARPLRCRTADMDETARLRLLEEVVADTLDDLDRRVFGLLAGCTPATSPPCFPIVEVLSGRYVATTFRHVACGLNTGKP | not soluble
GMQKLTRINDFNEVLNSRKSVKVFDENYKIPREEMDEIITKATKAPSSVNMQPWRIAVVQSDEMKEKVKESFGFNSRQLTTSSAMLIIFGDLQNYEKAEQIYGDAVEQQLMTEDIKAQLLDWILPYYKNLSREGMKDIVNIDSSLMAMQLMLTAKAHGYDTNPIGGFDKENIADIIGYDSDRYVPVLAIAIGKKAQDAHDSVRLPIDDVREFL | soluble
MSLSKNKLKTPHCMLNLTFNWLSFCEMRGTRDTVEDMFVCKANPVDNQACMAIFDGHGGSKTSYYACGVFIKLYTSAKMIFSKQWLRGTMRGISESVKTKLFPDGSTAAVAMFKDRKLITSTIGDSRIIVMTEDGKLKYENRVHKPTQREEFERVHEAGGSVYGFRLQNSLALSRTMGDIAVPGISAESEEDEVNLDEEDRWVIVGCDGVFDELPMSFVGELCKKAKSAIGLSHSLRTAAFAARSQDNITVVALDVKTLYSKVELASDMNSTMREGHHHHHH | not soluble
QVGLVRSKNVMIISPKYVAIQERLLRELDKGVTLVPIEGGYRNAKGMLLMTVIREKDFPRLKEAILEIDEEAFLISMSASEVYGKGFSLKKVADSYGVEATNANNLQ | not soluble
MARFSGKVALITGSSNGIGRAAAILFAQQGAKVTITGRNAERLKETRHEIKKSGIPAENILAIVADVITDEGQMRLINDTVRKFGHLDILVNNAGGALMDAQGRVGMDQDISVFDNTMQINMRSVVTLVQKAKEHLIKSKGEIINVSAMAAGHHGDPIATFYGMSKAALDQFTRSSAISLIQHGVRVNSVSPGFTKTGFGEAMGFPPIAMKKVISFYESHKECAPSGAIAQPGDIAQVILFLADRTMSSYIIGQSIIADGGSSLVMGMHAHDMLDILKA | not soluble
KQAQVDYLALPGDAKLDTRSVDYKCENGRKFTVQYLNKGDNSLAVVPVSDNSTLVFSNVISASGAKYAAGQYIWWTKGEEATLYGDWKGGEPTDGVACKER | soluble
GSRTVDLELELQIELLRETKRKYESVLQLGRALTAHLYSLLQTQHALGDAFADLSQKSPELQEEFGYNAETQKLLCKNGETLLGAVNFFVSSINTLVTKTMEDTLMTVKQYEAARLEYDAYRTDLEELSLGPRDAGTRGRLESAQATFQAHRDKYEKLRGDVAIKLKFLEENKIKVMHKQLLLFHNAVSAYFAGNQKQLEQTLQQFNIKLRPPGAEKPSWLEEQ | soluble
MTTRVLYVRHAHAHGRQTWGGDDNKRPLDKKGRRQAEMLVPMLLPFKPTAIYSAVPDRCQATALPLADELGLDVSVNRLFGDDAWETDPEACKKRFTDVVAQGGVPMIVGQGDIIPEMIKWFSENGTLPIDEKIKAKKGSVWVLSFHDGVFTGADYLEHHHHHH | soluble
MKIAALYDIHGNYPALKEVLKQVKKLSPDLVVLGGDLIAGPMPLETLSLLKHVSTTFKTVGIMGNNDQDIVDIYAKKRVGLSRKATEQLTWIANQLSYKQVSFLRNLLPSISIGNYFFCHAVKNDNTTVFSPQQNKAYIETLFKGVQESYIICGHTHIQFELSLPNKKIINAGSIGMPFSNQFGAQWLWLDDNRIEYKRTIFNQQAAIQLISQTEYPFKNEFIANNLRSTISLSQGYSILNTLIRAQNAQHDLSLEHHHHHH | soluble
MKKPKHDLTHVRHDPAHCLAPGLFRSLKRGDRKRCKLDVTYTFGEDESMRFVGFEPLGADDMRLLQGIVALGGPNGILLTPEPTSETGRQLRLFLEPRFEAIEQDGLVVRESLTKLLSETGMTDSGDNIKALKASLLRMSNVTILVTKGRRQAAFHLMSHAFDETDGRLWVALNPRIAEAILGHRPYARIDMAEVRVLQTDPARLMHQRLCGWIDPGKSGRVELDTLCGYVWPDEANAEAMKKRRQTARKALAELAAVGWVVNEYAKGKWEIKRPGPTATAPVYRRNVPLLPS | not soluble
